We go through six sequences from a protein production outcome set (Wang et al. 2014).

The nature of the data set: label from the status in PepcDB records.
As to “TTLASIGKDIIEDADGIAMPHQWLEGNLPVSAKCTVCDKTCGSVLRLQDWRCLWCKAMVHTSCKESLLTKC”, the protein production result is recorded as “not failed”. On to “MLHELFSVYLKMLVLYSPFFVLSCFISLTRGHSSKERKQLAWKVAFAALVASVLLYLFGRAIFGIFGITADAFRIGAGSVLFISALGMAQGKPAVQADNVQQDVTIVPLTIPLTVGPGTIGALLVMGVSQPHWDEKLLAIVSIALASFTVGLVLYLSHGIERLLGDQGLQIVSRLMGLFVCALAAQIIFTGIRGYLLP”, for which the protein production entry is on record as “failed”. In the case of “MRYVVGHKNPDTDSIASAIVLAYFLDCYPARLGDINPETEFVLRKFGVMEPELIESAKGKEIILVDHSEKSQSFDDLEEGKLIAIIDHHKVGLTTTEPILYYAKPVGSTATVIAELYFKDAIDLIGGKKKELKPDLAGLLLSAIISDTVLFKSPTTTDLDKEMAKKLAEIAGISNIEEFGMEILKAKSVVGKLKPEEIINMDFKNFDFNGKKVGIGQVEVIDVSEVESKKEDIYKLLEEKLKNEGYDLIVFLITDIMKEGSEALVVGNKEMFEKAFNVKVEGNSVFLEGVMSRKKQVVPPLERAYNG”, the protein production entry was “not failed”.

Turning to “MVDVLWDEIQNLELGQDYPTLFIPNEAYVMVEDRNRLSLIARPLLPRVQNFNAVINALPRAWGLTAHVHGRILDATYVQLLFQTEIYLLSVQRREVWLFNNWFVASQRWEAAPSLNFVTTIDLWVQMRGIPILYVFEKTELEIAQELGEIISLDFHDATSTQIAYIRVRVRFGITDRLRFFQRITFESGETALIRFQYERLRRIYSCFRFTHNLNYYPYRQRFQSIDRERAVFRDSVLRSSFNSQSQMTDSSLQVPLHPPPRVPSSGDAITSGIMRVFEVGESSRGVQDGESHNNMNLGESSKRKNLVILQRDKESRQHKQQETEQRMGGILKPPKKR”, the protein production result was “not failed”. In the case of “MKKFNIKSLTLLIVLLPLIVNANNIDSHLLEQNDIAKYVAQSDTVGSFFERFSALLNYPIVVSKQAAKKRISGEFDLSNPEEMLEKLTLLVGLIWYKDGNALYIYDSGELISKVILLENISLNYLIQYLKDANLYDHRYPIRGNISDKTFYISGPPALVELVANTATLLDKQVSSIGTDKVNFGVIKLKNTFVSDRTYNMRGEDIVIPGVATVVERLLNNGKALSNRQAQNDPMPPFNITQKVSEDSNDFSFSSVTNSSILEDVSLIAYPETNSILVKGNDQQIQIIRDIITQLDIAKRHIELSLWIIDIDKSELNNLGVNWQGTASFGDSFGASFNMSSSASISTLDGNKFIASVMALNQKKKANVVSRPVILTQENIPAIFDNNRTFYVSLVGERNSSLEHVTYGTLINVIPRFSSRGQIEMSLTIEDGTGNSQSNYNYNNENTSVLPEVGRTKISTIARVPQGKSLLIGGYTHETNSNEIISIPFLSSIPVIGNVFKYKTSNISNIVRVFLIQPREIKESSYYNTAEYKSLISEREIQKTTQIIPSETTLLEDEKSLVSYLNY”, the protein production entry is recorded as “failed”. Regarding “MTETFNPDLDLKISRIIKAPRRLVWNAWTDKTSLEQWWVPHPGQCRVDKMELHPGGAFETRYSEDGREFGQHVSGCFLAVDHEQRLIFTDALTAGFRPSAQPFLTAVMTFRDHPDGMEYEAYAMHNNLADRDRHAEMGFFDGWNTVAEQLAQLVEKQAAH”, the protein production entry is “failed”.
